# B1: Achaete-scute complex protein T4 (Drosophila melanogaster (Fruit fly)), P10084 (parent)
# chain: MKNNNNTTKSTTMSSSVLSTNETFPTTINSATKIFRYQHIMPAPSPLIPGGNQNQPAGTMPIKTRKYTPRGMALTRCSESVSSLSPGSSPAPYNVDQSQSVQRRNARERNRVKQVNNSFARLRQHIPQSIITDLTKGGGRGPHKKISKVDTLRIAVEYIRRLQDLVDDLNGGSNIGANNAVTQLQLCLDESSSHSSSSSTCSSSGHNTYYQNTISVSPLQQQQQLQRQQFNHQPLTALSLNTNLVGTSVPGGDAGCVSTSKNQQTCHSPTSSFNSSMSFDSGTYEGVPQQISTHLDRLDHLDNELHTHSQLQLKFEPYEHFQLDEEDCTPDDEEILDYISLWQEQ
# partner: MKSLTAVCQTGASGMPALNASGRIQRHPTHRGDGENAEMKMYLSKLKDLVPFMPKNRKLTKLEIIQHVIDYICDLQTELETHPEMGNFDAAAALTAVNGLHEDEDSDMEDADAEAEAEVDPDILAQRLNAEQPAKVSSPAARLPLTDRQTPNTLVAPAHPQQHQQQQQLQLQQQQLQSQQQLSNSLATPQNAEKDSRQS
# B2: Achaete-scute complex protein T4 (Drosophila melanogaster (Fruit fly)), P10084 (parent)
# chain: B1 chain
# partner: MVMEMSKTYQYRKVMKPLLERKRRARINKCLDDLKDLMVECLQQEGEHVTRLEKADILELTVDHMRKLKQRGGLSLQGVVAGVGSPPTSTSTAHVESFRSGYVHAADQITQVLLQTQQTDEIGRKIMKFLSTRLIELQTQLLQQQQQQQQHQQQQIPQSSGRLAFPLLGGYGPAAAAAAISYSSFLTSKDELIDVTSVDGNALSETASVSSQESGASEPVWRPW
# Variants of: B1
# Conditions: with emc_drome emc
row,Variant,effect of a mutation on the interaction
1,S340D,decreasing interaction

# Variants of: B2
# Conditions: with esm3_drome E(spl)m3-HLH
row,Variant,effect of a mutation on the interaction
1,S340D,increasing interaction

# Reference: IntAct's records for PubMed 9371806
